Measured values from PMC9287160, “Structural insights into the function-modulating effects of nanobody binding to the integrin receptor αMβ2” (The Journal of Biological Chemistry, 2022).

Target: T1, recombinant human αMβ2 αI domain (human)
T1 construct: αI domain (von Willebrand factor type A domain) of integrin αM (CD11b), human; numbers count on: the mature protein; PDB 4M76 (cited) holds an αI–C3d complex of the same laboratory; also called hαI; human αI domain
T1 chain: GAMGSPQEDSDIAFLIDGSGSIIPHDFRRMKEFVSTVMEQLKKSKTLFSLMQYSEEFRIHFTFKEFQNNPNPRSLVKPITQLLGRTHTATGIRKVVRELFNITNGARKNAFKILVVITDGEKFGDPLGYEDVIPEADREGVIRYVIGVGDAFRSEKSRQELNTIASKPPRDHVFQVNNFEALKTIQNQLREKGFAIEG
Experiment: BLI; His-tagged hCD11bNb1 on anti-penta-HIS sensors; αMβ2 HP 6.25-50 nM or αI domain 0.8-25 nM in solution; 30 °C; 20 mM Hepes pH 7.5, 150 mM NaCl, 5 mM MgCl2, 1 mM CaCl2; 1:1 model; triplicates; apparent
Conditions: both partners purified

B1: nanobody hCD11bNb1 (His-tagged) (VHH)
VHH: QVQLVETGGGLVQAGGSLRLSCAASGNINSFNAMGWFRQAPGKQRELVAAITFGGRTNYADSVKGRFTISRDNTKGSVYLQMNSLKPEDTAVYYCAASENNLLTGVWHYWGRGTQVTVSS
notes: nanobody selected by phage display from a llama immunised with the αMβ2 HP; they are in PDB 7NP9 (nanobody alone) and PDB 7P2D (complex); Captured through its His tag on anti-penta-HIS BLI sensors. pET-22b(+) usually adds a C-terminal His6 (surmise); also called parental hCD11bNb1; WT hCD11bNb1
Kd: 1 to 6 nM
